Laboratory results from US20260176319A1 (KALLYOPE, published 2026).
Starred links: 1 amine or outer side, 2 acyl side, 3 side chain; linkers in the order of their positions; H or OH if unused. Non-standard residues stand in square brackets, D forms with d. *: point of attachment. Trp(6-Me) = Cc1ccc2c(C[C@H](N)C(=O)O)c[nH]c2c1; Trp(7-F) = N[C@@H](Cc1c[nH]c2c(F)cccc12)C(=O)O; Trp(7-Me) = Cc1cccc2c(C[C@H](N)C(=O)O)c[nH]c12; d(γGlu) = O=C(O)[C@@H](CCC(=O)[*:2])N[*:1]; C18 diacid = O=C(O)CCCCCCCCCCCCCCCCC(=O)*; γGlu = O=C(O)[C@H](CCC(=O)[*:2])N[*:1]; 2Nal = N[C@@H](Cc1ccc2ccccc2c1)C(=O)O; Palmitoyl = CCCCCCCCCCCCCCCC(=O)*; 3Pal = N[C@@H](Cc1cccnc1)C(=O)O; 4Pal = N[C@@H](Cc1ccncc1)C(=O)O; Nle = CCCC[C@H](N)C(=O)O; AEEA = NCCOCCOCC(=O)O; Aib = CC(C)(N)C(=O)O; Sar = CNCC(=O)O

Target: human GRP receptor (human, UniProt P30550 1-384)
Experiment: cell-based or functional assay

human GRP receptor, sequence (P30550 whole entry): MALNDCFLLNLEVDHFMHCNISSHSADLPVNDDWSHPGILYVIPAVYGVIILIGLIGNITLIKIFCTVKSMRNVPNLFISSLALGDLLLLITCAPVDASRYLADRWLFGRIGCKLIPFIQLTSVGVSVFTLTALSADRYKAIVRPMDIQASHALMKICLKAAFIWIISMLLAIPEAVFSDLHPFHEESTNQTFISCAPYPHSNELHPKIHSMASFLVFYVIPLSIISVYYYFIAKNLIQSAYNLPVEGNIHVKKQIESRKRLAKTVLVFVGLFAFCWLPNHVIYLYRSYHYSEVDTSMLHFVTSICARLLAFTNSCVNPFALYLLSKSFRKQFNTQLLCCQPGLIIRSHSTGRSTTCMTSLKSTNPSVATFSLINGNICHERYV

hIP1 GRPR EC50 [nM]	Binder
1.45	Palmitoyl-[γGlu][AEEA][AEEA]GN[4Pal]WAV[dA]HL[Nle]-NH2 (SMILES CCCCCCCCCCCCCCCC(=O)N[C@@H](CCC(=O)NCCOCCOCC(=O)NCCOCCOCC(=O)NCC(=O)N[C@@H](CC(N)=O)C(=O)N[C@@H](Cc1ccncc1)C(=O)N[C@@H](Cc1c[nH]c2ccccc12)C(=O)N[C@@H](C)C(=O)N[C@H](C(=O)N[C@H](C)C(=O)N[C@@H](Cc1c[nH]cn1)C(=O)N[C@@H](CC(C)C)C(=O)N[C@@H](CCCC)C(N)=O)C(C)C)C(=O)O) [Peptide 94]
17.6	{C18 diacid}-[γGlu][AEEA][AEEA]GNH[Trp(7-F)]AV[dA]HL[Nle]-NH2 (SMILES CCCC[C@H](NC(=O)[C@H](CC(C)C)NC(=O)[C@H](Cc1c[nH]cn1)NC(=O)[C@@H](C)NC(=O)[C@@H](NC(=O)[C@H](C)NC(=O)[C@H](Cc1c[nH]c2c(F)cccc12)NC(=O)[C@H](Cc1c[nH]cn1)NC(=O)[C@H](CC(N)=O)NC(=O)CNC(=O)COCCOCCNC(=O)COCCOCCNC(=O)CC[C@H](NC(=O)CCCCCCCCCCCCCCCCC(=O)O)C(=O)O)C(C)C)C(N)=O) [Peptide 86]
5.51	{C18 diacid}-[γGlu][AEEA][AEEA]GRHWAV[dA]HL[Nle]-NH2 (SMILES CCCC[C@H](NC(=O)[C@H](CC(C)C)NC(=O)[C@H](Cc1c[nH]cn1)NC(=O)[C@@H](C)NC(=O)[C@@H](NC(=O)[C@H](C)NC(=O)[C@H](Cc1c[nH]c2ccccc12)NC(=O)[C@H](Cc1c[nH]cn1)NC(=O)[C@H](CCCNC(=N)N)NC(=O)CNC(=O)COCCOCCNC(=O)COCCOCCNC(=O)CC[C@H](NC(=O)CCCCCCCCCCCCCCCCC(=O)O)C(=O)O)C(C)C)C(N)=O) [Peptide 88]
1.57	Palmitoyl-[γGlu][AEEA][AEEA]GRHWAV[dA]HL[Nle]-NH2 (SMILES CCCCCCCCCCCCCCCC(=O)N[C@@H](CCC(=O)NCCOCCOCC(=O)NCCOCCOCC(=O)NCC(=O)N[C@@H](CCCNC(=N)N)C(=O)N[C@@H](Cc1c[nH]cn1)C(=O)N[C@@H](Cc1c[nH]c2ccccc12)C(=O)N[C@@H](C)C(=O)N[C@H](C(=O)N[C@H](C)C(=O)N[C@@H](Cc1c[nH]cn1)C(=O)N[C@@H](CC(C)C)C(=O)N[C@@H](CCCC)C(N)=O)C(C)C)C(=O)O) [Peptide 89]
2550	{C18 diacid}-[d(γGlu)][AEEA][AEEA]GNH[Trp(6-Me)]AV[dA]HL[Nle][Sar]-NH2 (SMILES CCCC[C@H](NC(=O)[C@H](CC(C)C)NC(=O)[C@H](Cc1c[nH]cn1)NC(=O)[C@@H](C)NC(=O)[C@@H](NC(=O)[C@H](C)NC(=O)[C@H](Cc1c[nH]c2cc(C)ccc12)NC(=O)[C@H](Cc1c[nH]cn1)NC(=O)[C@H](CC(N)=O)NC(=O)CNC(=O)COCCOCCNC(=O)COCCOCCNC(=O)CC[C@@H](NC(=O)CCCCCCCCCCCCCCCCC(=O)O)C(=O)O)C(C)C)C(=O)N(C)CC(N)=O) [Peptide 84]
14.7	{C18 diacid}-[γGlu][AEEA][AEEA]GNH[Trp(7-Me)]AV[dA]HL[Nle]-NH2 (SMILES CCCC[C@H](NC(=O)[C@H](CC(C)C)NC(=O)[C@H](Cc1c[nH]cn1)NC(=O)[C@@H](C)NC(=O)[C@@H](NC(=O)[C@H](C)NC(=O)[C@H](Cc1c[nH]c2c(C)cccc12)NC(=O)[C@H](Cc1c[nH]cn1)NC(=O)[C@H](CC(N)=O)NC(=O)CNC(=O)COCCOCCNC(=O)COCCOCCNC(=O)CC[C@H](NC(=O)CCCCCCCCCCCCCCCCC(=O)O)C(=O)O)C(C)C)C(N)=O) [Peptide 85]
109	{C18 diacid}-[d(γGlu)][AEEA][AEEA][AEEA][AEEA]GN[3Pal]WAV[dA]HL[Nle]-NH2 (SMILES CCCC[C@H](NC(=O)[C@H](CC(C)C)NC(=O)[C@H](Cc1c[nH]cn1)NC(=O)[C@@H](C)NC(=O)[C@@H](NC(=O)[C@H](C)NC(=O)[C@H](Cc1c[nH]c2ccccc12)NC(=O)[C@H](Cc1cccnc1)NC(=O)[C@H](CC(N)=O)NC(=O)CNC(=O)COCCOCCNC(=O)COCCOCCNC(=O)COCCOCCNC(=O)COCCOCCNC(=O)CC[C@@H](NC(=O)CCCCCCCCCCCCCCCCC(=O)O)C(=O)O)C(C)C)C(N)=O) [Peptide 83]
1230	{C18 diacid}-[d(γGlu)][AEEA][AEEA]GNHWAV[dA]HL[Nle][Aib]-NH2 (SMILES CCCC[C@H](NC(=O)[C@H](CC(C)C)NC(=O)[C@H](Cc1c[nH]cn1)NC(=O)[C@@H](C)NC(=O)[C@@H](NC(=O)[C@H](C)NC(=O)[C@H](Cc1c[nH]c2ccccc12)NC(=O)[C@H](Cc1c[nH]cn1)NC(=O)[C@H](CC(N)=O)NC(=O)CNC(=O)COCCOCCNC(=O)COCCOCCNC(=O)CC[C@@H](NC(=O)CCCCCCCCCCCCCCCCC(=O)O)C(=O)O)C(C)C)C(=O)NC(C)(C)C(N)=O) [Peptide 82]
1.73	Palmitoyl-[γGlu][AEEA][AEEA]GNH[Trp(7-F)]AV[dA]HL[Nle]-NH2 (SMILES CCCCCCCCCCCCCCCC(=O)N[C@@H](CCC(=O)NCCOCCOCC(=O)NCCOCCOCC(=O)NCC(=O)N[C@@H](CC(N)=O)C(=O)N[C@@H](Cc1c[nH]cn1)C(=O)N[C@@H](Cc1c[nH]c2c(F)cccc12)C(=O)N[C@@H](C)C(=O)N[C@H](C(=O)N[C@H](C)C(=O)N[C@@H](Cc1c[nH]cn1)C(=O)N[C@@H](CC(C)C)C(=O)N[C@@H](CCCC)C(N)=O)C(C)C)C(=O)O) [Peptide 87]
1.58	Palmitoyl-[γGlu][AEEA][AEEA]GNHWAV[dA]HL[Nle]-NH2 (SMILES CCCCCCCCCCCCCCCC(=O)N[C@@H](CCC(=O)NCCOCCOCC(=O)NCCOCCOCC(=O)NCC(=O)N[C@@H](CC(N)=O)C(=O)N[C@@H](Cc1c[nH]cn1)C(=O)N[C@@H](Cc1c[nH]c2ccccc12)C(=O)N[C@@H](C)C(=O)N[C@H](C(=O)N[C@H](C)C(=O)N[C@@H](Cc1c[nH]cn1)C(=O)N[C@@H](CC(C)C)C(=O)N[C@@H](CCCC)C(N)=O)C(C)C)C(=O)O) [Peptide 96]
8.91	{C18 diacid}-[γGlu][AEEA][AEEA]GNHWAV[dA]HL[Nle]-NH2 (SMILES CCCC[C@H](NC(=O)[C@H](CC(C)C)NC(=O)[C@H](Cc1c[nH]cn1)NC(=O)[C@@H](C)NC(=O)[C@@H](NC(=O)[C@H](C)NC(=O)[C@H](Cc1c[nH]c2ccccc12)NC(=O)[C@H](Cc1c[nH]cn1)NC(=O)[C@H](CC(N)=O)NC(=O)CNC(=O)COCCOCCNC(=O)COCCOCCNC(=O)CC[C@H](NC(=O)CCCCCCCCCCCCCCCCC(=O)O)C(=O)O)C(C)C)C(N)=O) [Peptide 97]
110	{C18 diacid}-[γGlu][AEEA][AEEA][AEEA][AEEA]GN[3Pal][Trp(7-Me)]AV[dA]HL[Nle]-NH2 (SMILES CCCC[C@H](NC(=O)[C@H](CC(C)C)NC(=O)[C@H](Cc1c[nH]cn1)NC(=O)[C@@H](C)NC(=O)[C@@H](NC(=O)[C@H](C)NC(=O)[C@H](Cc1c[nH]c2c(C)cccc12)NC(=O)[C@H](Cc1cccnc1)NC(=O)[C@H](CC(N)=O)NC(=O)CNC(=O)COCCOCCNC(=O)COCCOCCNC(=O)COCCOCCNC(=O)COCCOCCNC(=O)CC[C@H](NC(=O)CCCCCCCCCCCCCCCCC(=O)O)C(=O)O)C(C)C)C(N)=O) [Peptide 95]
505	{C18 diacid}-[d(γGlu)][AEEA][AEEA]GNH[Trp(7-Me)]AV[dA]HL[Nle][Sar]-NH2 (SMILES CCCC[C@H](NC(=O)[C@H](CC(C)C)NC(=O)[C@H](Cc1c[nH]cn1)NC(=O)[C@@H](C)NC(=O)[C@@H](NC(=O)[C@H](C)NC(=O)[C@H](Cc1c[nH]c2c(C)cccc12)NC(=O)[C@H](Cc1c[nH]cn1)NC(=O)[C@H](CC(N)=O)NC(=O)CNC(=O)COCCOCCNC(=O)COCCOCCNC(=O)CC[C@@H](NC(=O)CCCCCCCCCCCCCCCCC(=O)O)C(=O)O)C(C)C)C(=O)N(C)CC(N)=O) [Peptide 81]
3.72	Palmitoyl-[γGlu][AEEA][AEEA][AEEA][AEEA]GN[3Pal][Trp(7-Me)]AV[dA]HL[Nle]-NH2 (SMILES CCCCCCCCCCCCCCCC(=O)N[C@@H](CCC(=O)NCCOCCOCC(=O)NCCOCCOCC(=O)NCCOCCOCC(=O)NCCOCCOCC(=O)NCC(=O)N[C@@H](CC(N)=O)C(=O)N[C@@H](Cc1cccnc1)C(=O)N[C@@H](Cc1c[nH]c2c(C)cccc12)C(=O)N[C@@H](C)C(=O)N[C@H](C(=O)N[C@H](C)C(=O)N[C@@H](Cc1c[nH]cn1)C(=O)N[C@@H](CC(C)C)C(=O)N[C@@H](CCCC)C(N)=O)C(C)C)C(=O)O) [Peptide 91]
6.95	Palmitoyl-[γGlu][AEEA][AEEA]GNH[2Nal]AVAHL[Nle]-NH2 (SMILES CCCCCCCCCCCCCCCC(=O)N[C@@H](CCC(=O)NCCOCCOCC(=O)NCCOCCOCC(=O)NCC(=O)N[C@@H](CC(N)=O)C(=O)N[C@@H](Cc1c[nH]cn1)C(=O)N[C@@H](Cc1ccc2ccccc2c1)C(=O)N[C@@H](C)C(=O)N[C@H](C(=O)N[C@@H](C)C(=O)N[C@@H](Cc1c[nH]cn1)C(=O)N[C@@H](CC(C)C)C(=O)N[C@@H](CCCC)C(N)=O)C(C)C)C(=O)O) [Peptide 93]
12.6	{C18 diacid}-[γGlu][AEEA][AEEA][AEEA][AEEA]GNH[Trp(7-Me)]AV[dA]HL[Nle]-NH2 (SMILES CCCC[C@H](NC(=O)[C@H](CC(C)C)NC(=O)[C@H](Cc1c[nH]cn1)NC(=O)[C@@H](C)NC(=O)[C@@H](NC(=O)[C@H](C)NC(=O)[C@H](Cc1c[nH]c2c(C)cccc12)NC(=O)[C@H](Cc1c[nH]cn1)NC(=O)[C@H](CC(N)=O)NC(=O)CNC(=O)COCCOCCNC(=O)COCCOCCNC(=O)COCCOCCNC(=O)COCCOCCNC(=O)CC[C@H](NC(=O)CCCCCCCCCCCCCCCCC(=O)O)C(=O)O)C(C)C)C(N)=O) [Peptide 90]
26.8	GNHWAVXHLX (Gly-Asn-His-Trp-Ala-Val-D-Ala-His-Leu-Nle-NH2) [Peptide 6]
